Read-outs that look alike come from different tables or passages of the source. One block for each binder: values may come before it.
Key:
human B7-H4-his = target: T1, human B7-H4-his (human, UniProt Q7Z7D3 25-259); test: SPR (Biacore)
T1 construct: also called hB7-H4-his; hB7-H4 his; not shown: his tag
T1 sequence: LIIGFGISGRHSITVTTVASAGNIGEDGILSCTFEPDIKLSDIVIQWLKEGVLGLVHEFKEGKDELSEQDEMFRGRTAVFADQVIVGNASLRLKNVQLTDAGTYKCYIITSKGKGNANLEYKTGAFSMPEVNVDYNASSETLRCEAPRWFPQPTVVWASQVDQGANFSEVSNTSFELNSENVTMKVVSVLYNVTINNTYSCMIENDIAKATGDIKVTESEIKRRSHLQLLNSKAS
Method: (§1) Surface plasmon resonance experiments were performed using a Biacore T200 instrument equipped with CM5 sensor chips. The system was equilibrated in running buffer HBS-EP pH 7.4. The ligands were immobilized using amine-coupling chemistry. The surfaces of flow cells one through four were activated for 5 min using an amine coupling kit at a flow rate of […]. The ligands (human B7-H4-Fc, human B7-H4-hism and mouse B7-H4-Fc; at a concentration of 5 μg/ml in 10 mM sodium acetate, pH 5.0) were immobilized at a density of 50-100 RU on flow cell 2, 3, 4 respectively. Flow cell 1 was left blank to serve as a reference surface. All flow cell surfaces were blocked with a 5 min injection of 1 M ethanolamine, pH 8.0. To collect kinetic binding data, the respective analyte (diluted in 1×HBS-EP buffer, pH 7.4) was injected over the four flow cells at concentrations of 100 nM to 0.1 nM at a flow rate of […] and at a temperature of 25° C. The protein complex was allowed to associate and dissociate for 180 seconds and 1000 or 1200 seconds, respectively. The surfaces were regenerated with a 30 second injection of 1.5 M NaCl/0.05 M NaOH. The data were fit to a simple 1:1 interaction model using the Langmuir fit option available within the Biaevaluaton software
(§2) The kinetics for binding of the different antibodies to their targets were examined using Biacore analysis.

human B7-H4-Fc = target: T2, human B7-H4-Fc (human); test: SPR (Biacore)
T2 construct: also called hB7-H4-Fc; hB7-H4 Fc
Method: as §1, §2

[1] = target: T3, IgV domain of mouse B7-H4-Fc (mouse; human); test: ELISA, coated mB7-H4 IgV domain
T3 construct: also called mB7-H4 IgV domain
Procedure, shortened: (§3)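 Direct binding ELISA: immobilized B7-H4-Fc or his-tagged antigen (~1-2 μg/ml, overnight, 4° C), antibody dilution series 1-1.5 h at RT. Readout OD450 after HRP anti-hFab and TMB; EC50 calculated.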

[2] = target: T4, human B7-H4 expressed on cells (human, UniProt Q7Z7D3 25-282); test: flow cytometry, SK-BR-3 cells
T4 construct: Transfected CHO cells or tumor cell lines that carry hB7-H4; also called cellular hB7-H4
T4 sequence: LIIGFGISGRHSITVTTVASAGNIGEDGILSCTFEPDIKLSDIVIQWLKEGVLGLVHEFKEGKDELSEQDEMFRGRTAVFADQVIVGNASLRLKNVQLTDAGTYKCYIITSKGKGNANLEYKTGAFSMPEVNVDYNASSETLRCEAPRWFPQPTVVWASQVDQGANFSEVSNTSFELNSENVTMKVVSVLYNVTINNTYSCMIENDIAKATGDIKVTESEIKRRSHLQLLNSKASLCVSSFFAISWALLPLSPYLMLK
Procedure, shortened: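 Cell-surface binding read by flow cytometry: cells (1×10⁶/ml, cold FACS buffer) + serial dilutions of antibody or fusion protein, 1 h, 4 °C; 3 washes; secondary Ab 1:200, 30 min, 4 °C, dark.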

mouse B7-H4-Fc [3] = target: T5, mouse B7-H4-Fc (mouse; human); test: ELISA, coated mB7-H4-Fc
T5 construct: also called mB7-H4-Fc; mB7-H4-hFc
Method: (§4) ELISA experiments were performed to determine binding to hB7-H4-Fc (FIG. 3A), hB7-H4-his (FIG. 3B), mB7-H4-Fc (FIG. 3C), and hB7-H4 IgV domain (FIG. 3D). Flow cytometry experiments were performed to determine binding to CHO cells expressing hB7-H4 (FIG. 3E) or mB7-H4 (FIG. 3F).
(§5) About 1-2 μg/ml of human or mouse B7-H4-Fc (or his-tagged) was immobilized on ELISA plates (Immuno 2HB, Thermo scientific, cat #3455) at 4° C. overnight. After blocking the plates with 3% PBS+milk, serial diluted antibodies were added to the blocked plates and incubated at RT for 1-1.5 h. After washing the plates with PBS-T (0.05%), horse radish peroxidase (HRP)-conjugated antibody targeting the hFab was added to the plate. Signals were developed by adding 3,3′,5,5′-Tetramethylbenzidine (TMB (followed 1N of H₂SO₄ to stop the reaction. The OD at 450 nm was read by ELISA plate reader (Infinite M1000 from TECAN). GraphPad from Prism was used to plot OD450 vs. antibody concentration curve and to calculate the EC50 values.

[4] = target: T6, mouse B7-H4 expressed on cells (mouse, UniProt Q7TSP5 25-257); test: flow cytometry, CHO cells expressing mB7-H4
T6 construct: also called cellular mB7-H4; mB7-H4/CT26
T6 sequence: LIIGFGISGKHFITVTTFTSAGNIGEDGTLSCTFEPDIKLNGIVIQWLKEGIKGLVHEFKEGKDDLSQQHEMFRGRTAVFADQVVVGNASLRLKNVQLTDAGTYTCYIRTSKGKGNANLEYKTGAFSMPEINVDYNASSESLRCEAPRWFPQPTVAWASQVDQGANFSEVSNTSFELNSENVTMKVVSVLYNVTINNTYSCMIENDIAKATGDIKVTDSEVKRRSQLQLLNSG
Method: as §4
Cells were harvested, washed once, and then re-suspended to the concentration of 1×10⁶ cells/ml in ice cold FACS Buffer. 25 μl of cell suspension was added to each well of a 96-well round-bottom microliter plate. Serially diluted antibodies or fusion proteins were added to each well and incubated for 1 hour at 4° C. Cells were washed three times by centrifugation at 1500 rpm for 5 minutes, and then stained with secondary antibody (1:200 dilution) for 30 min at 4° C. in the dark. Cells were washed once, re-suspended in 100 μl PBS buffer and then analyzed using Guava Flow Cytometry EasyCyte system.

[5] = target: T7, mB7-H4 (soluble mouse B7-H4, construct not named) (mouse, UniProt Q7TSP5 25-257, limits assumed); test: ELISA and SPR (Biacore)
T7 sequence: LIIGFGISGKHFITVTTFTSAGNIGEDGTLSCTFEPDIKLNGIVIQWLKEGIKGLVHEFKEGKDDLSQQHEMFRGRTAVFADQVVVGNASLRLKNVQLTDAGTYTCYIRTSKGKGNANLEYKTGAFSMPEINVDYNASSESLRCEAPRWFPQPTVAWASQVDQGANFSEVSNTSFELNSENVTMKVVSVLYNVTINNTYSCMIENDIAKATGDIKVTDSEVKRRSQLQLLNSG
Method: as §5, §1

[6] = target: T8, IgC domain of mouse B7-H4-Fc (mouse; human); test: ELISA, coated mB7-H4 IgC domain (title on the sheet: IgC domain of mB7H4)
T8 construct: also called mB7-H4 IgC domain
Method: as §5

[7] = target: T9, hB7-H4 (soluble human B7-H4, construct not named) (human, UniProt Q7Z7D3 25-259, limits assumed); test: ELISA, hB7-H4
T9 construct: also called soluble hB7-H4
T9 sequence: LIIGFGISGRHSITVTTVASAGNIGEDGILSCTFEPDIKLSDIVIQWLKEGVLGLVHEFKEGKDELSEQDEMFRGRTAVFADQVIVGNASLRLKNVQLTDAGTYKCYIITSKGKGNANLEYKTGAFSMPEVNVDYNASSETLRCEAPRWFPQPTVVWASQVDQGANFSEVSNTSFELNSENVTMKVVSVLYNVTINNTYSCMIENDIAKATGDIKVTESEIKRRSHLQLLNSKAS
Procedure, shortened: as §3

[8] = target: T9, hB7-H4 (soluble human B7-H4, construct …); test: SPR (Biacore)
Procedure, shortened: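 Kinetic constants came from a 1:1 Langmuir fit of binding at 25 °C in HBS-EP, pH 7.4. Analyte (100 nM to 0.1 nM) flowed for 180 s, then dissociated for 1000 or 1200 s, over amine-coupled human B7-H4-Fc, human B7-H4-his or mouse B7-H4-Fc surfaces at 50-100 RU.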

mouse B7-H4-his = target: T10, mouse B7-H4-his (mouse, UniProt Q7TSP5 25-257); test: ELISA, coated mB7-H4-his
T10 construct: also called mB7-H4-his; mB7-H4-His; not shown: his tag
T10 sequence: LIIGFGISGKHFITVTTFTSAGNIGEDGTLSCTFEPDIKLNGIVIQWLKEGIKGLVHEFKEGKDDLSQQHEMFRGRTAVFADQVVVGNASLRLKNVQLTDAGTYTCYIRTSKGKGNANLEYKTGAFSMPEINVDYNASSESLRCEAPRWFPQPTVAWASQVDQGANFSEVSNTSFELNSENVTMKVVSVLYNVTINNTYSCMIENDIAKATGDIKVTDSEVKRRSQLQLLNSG
Method: as §5

[9] = target: T9, hB7-H4 (soluble human B7-H4, construct …); test: ELISA, hB7-H4; remark: listed apart in the source
Method: as §5

[10] = target: T9, hB7-H4 (soluble human B7-H4, construct …); test: SPR (Biacore); remark: listed apart in the source
mouse B7-H4-Fc [11] = target: T5, mouse B7-H4-Fc; test: ELISA, coated mB7-H4-Fc; remark: listed apart in the source
Procedure, shortened: as §3

[12] = target: T11, IgC domain of human B7-H4-Fc (human); test: ELISA, coated hB7-H4 IgC domain
T11 construct: also called hB7-H4 IgC domain
Method: ELISA experiments were performed to determine binding to hB7-H4-Fc (FIG. 5A), hB7-H4-his (FIG. 5B), mB7-H4-Fc domain (FIG. 5C), hB7-H4 IgV domain (FIG. 5D), and hB7-H4 IgC domain (FIG. 5E). Flow cytrometry experiments were performed to determine binding to CHO cells expressing hB7-H4 (FIG. 5F) or mB7-H4 (FIG. 5G). […] A cross-reactive IgV binding antibody and an IgC binding antibody were used as controls.
as §5

[13] = target: T4, human B7-H4 expressed on cells; test: flow cytometry, SK-BR-3 cells; remark: listed apart in the source
[14] = target: T6, mouse B7-H4 expressed on cells; test: flow cytometry, mB7-H4/CT26 cells
[15] = target: T11, IgC domain of human B7-H4-Fc; test: ELISA, coated hB7-H4 IgC domain; remark: listed apart in the source
[16] = target: T3, IgV domain of mouse B7-H4-Fc; test: ELISA, coated mB7-H4 IgV domain; remark: listed apart in the source
[17] = target: T7, mB7-H4 (soluble mouse B7-H4, construct …); test: SPR (Biacore); values equal to Table 11
[18] = target: T12, IgV domain of human B7-H4-Fc (human); test: ELISA, coated hB7-H4 IgV domain
T12 construct: also called hB7-H4 IgV domain

[19] = target: T7, mB7-H4 (soluble mouse B7-H4, construct …); test: ELISA, mB7-H4
Method: as §5

T5 sequence (chain, as listed by the source): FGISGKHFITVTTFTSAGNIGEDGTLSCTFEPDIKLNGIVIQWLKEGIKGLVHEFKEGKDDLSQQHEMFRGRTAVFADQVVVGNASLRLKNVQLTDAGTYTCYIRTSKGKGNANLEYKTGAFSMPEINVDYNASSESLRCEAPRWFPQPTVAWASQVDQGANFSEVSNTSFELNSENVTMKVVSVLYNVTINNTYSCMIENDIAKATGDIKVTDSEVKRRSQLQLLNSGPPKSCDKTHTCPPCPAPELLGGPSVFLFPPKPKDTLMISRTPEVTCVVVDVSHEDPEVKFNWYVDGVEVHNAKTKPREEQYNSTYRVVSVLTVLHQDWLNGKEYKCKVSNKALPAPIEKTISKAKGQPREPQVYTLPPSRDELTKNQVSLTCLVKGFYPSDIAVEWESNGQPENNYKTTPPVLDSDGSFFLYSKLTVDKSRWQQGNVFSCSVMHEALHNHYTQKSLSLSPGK
T3 sequence (chain, as listed by the source): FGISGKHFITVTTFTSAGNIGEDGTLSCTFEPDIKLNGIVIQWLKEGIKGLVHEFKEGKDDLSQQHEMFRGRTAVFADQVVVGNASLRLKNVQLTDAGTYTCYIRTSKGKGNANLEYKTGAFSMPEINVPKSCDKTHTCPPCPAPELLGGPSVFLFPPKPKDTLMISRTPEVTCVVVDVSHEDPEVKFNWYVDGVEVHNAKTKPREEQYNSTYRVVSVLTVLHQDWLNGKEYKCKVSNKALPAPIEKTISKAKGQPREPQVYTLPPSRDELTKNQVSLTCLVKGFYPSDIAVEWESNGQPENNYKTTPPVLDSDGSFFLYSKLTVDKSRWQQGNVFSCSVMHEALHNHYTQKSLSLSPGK
T11 sequence (chain, as listed by the source): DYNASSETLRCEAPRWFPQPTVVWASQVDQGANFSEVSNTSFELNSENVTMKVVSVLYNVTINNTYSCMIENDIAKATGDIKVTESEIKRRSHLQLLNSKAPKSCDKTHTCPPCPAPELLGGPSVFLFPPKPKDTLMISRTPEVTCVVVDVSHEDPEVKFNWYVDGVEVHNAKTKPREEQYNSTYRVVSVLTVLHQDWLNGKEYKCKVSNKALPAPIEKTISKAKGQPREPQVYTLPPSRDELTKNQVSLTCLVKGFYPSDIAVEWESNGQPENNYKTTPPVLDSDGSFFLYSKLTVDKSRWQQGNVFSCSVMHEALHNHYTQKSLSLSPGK
T2 sequence (chain, as listed by the source): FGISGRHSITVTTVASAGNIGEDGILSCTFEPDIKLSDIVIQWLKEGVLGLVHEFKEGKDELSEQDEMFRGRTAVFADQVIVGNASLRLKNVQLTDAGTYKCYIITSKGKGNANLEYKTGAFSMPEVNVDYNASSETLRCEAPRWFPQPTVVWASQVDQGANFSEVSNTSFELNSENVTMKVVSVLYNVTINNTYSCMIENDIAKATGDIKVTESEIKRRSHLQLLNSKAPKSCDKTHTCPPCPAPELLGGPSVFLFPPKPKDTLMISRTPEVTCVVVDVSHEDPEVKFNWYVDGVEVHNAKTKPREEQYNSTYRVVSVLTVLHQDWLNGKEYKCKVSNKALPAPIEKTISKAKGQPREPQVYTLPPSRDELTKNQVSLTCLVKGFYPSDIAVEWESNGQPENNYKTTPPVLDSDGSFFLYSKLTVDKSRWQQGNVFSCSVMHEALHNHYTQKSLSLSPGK
T8 sequence (chain, as listed by the source): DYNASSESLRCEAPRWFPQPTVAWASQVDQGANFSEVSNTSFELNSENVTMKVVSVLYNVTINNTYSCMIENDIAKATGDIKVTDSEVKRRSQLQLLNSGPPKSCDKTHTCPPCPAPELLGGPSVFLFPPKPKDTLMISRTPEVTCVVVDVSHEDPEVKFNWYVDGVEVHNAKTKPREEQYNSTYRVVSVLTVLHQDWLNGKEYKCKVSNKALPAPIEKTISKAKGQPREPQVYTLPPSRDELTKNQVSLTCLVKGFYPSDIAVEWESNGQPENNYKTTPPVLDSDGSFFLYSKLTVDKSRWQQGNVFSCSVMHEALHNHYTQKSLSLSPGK
T12 sequence (chain, as listed by the source): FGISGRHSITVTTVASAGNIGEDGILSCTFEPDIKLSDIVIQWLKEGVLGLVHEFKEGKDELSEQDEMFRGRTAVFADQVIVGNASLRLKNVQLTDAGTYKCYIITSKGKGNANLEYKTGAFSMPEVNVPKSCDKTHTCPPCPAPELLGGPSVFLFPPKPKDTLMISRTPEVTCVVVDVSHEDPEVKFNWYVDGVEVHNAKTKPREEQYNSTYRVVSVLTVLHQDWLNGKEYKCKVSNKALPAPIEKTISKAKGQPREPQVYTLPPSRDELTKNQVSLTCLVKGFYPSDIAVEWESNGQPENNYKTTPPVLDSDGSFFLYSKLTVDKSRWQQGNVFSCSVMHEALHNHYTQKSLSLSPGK

Kd (human B7-H4-his): 0.0849 nM
Kd (human B7-H4-Fc): 0.0951 nM
EC50 [2]: 0.84 nM
binding result [5]: no binding
EC50 [7]: 0.048 nM
Kd [8]: 0.0819 nM
B1: 3F2/3F2 (antibody, human IgG1, V domains shown)
VH: QVQLVQSGAEVKKPGASVKVSCKASGYTFTAQYMYWVRQAPGQGLEWMGRINPTSGNTVYAQKLQGRVTMTRDTSTSTVYMELSSLRSEDTAVYYCARGINWFDPWGQGTLVTVSS
VL: not shown
binding result [1]: no binding (tested: axis value -8 (labelled log nM))
binding result (mouse B7-H4-Fc [3]): no binding (tested: axis value -8 (log scale labelled nM))
binding result [4]: no binding (tested: axis value -7 (log scale labelled nM))
binding result [6]: no binding (tested: axis value -8 (labelled log nM))
binding result (mouse B7-H4-his): no binding (tested: axis value -8 (labelled log nM))

EC50 [9]: 0.222 nM
Kd [10]: 0.626 nM
binding result (mouse B7-H4-Fc [11]): binds
EC50 (read off the curve) [12]: ~0.01 µg/mL
EC50 [13]: 3.37 nM
EC50 [14]: 18.4 nM
EC50 (read off the curve) [15]: ~0.2 nM
binding result [16]: no binding (tested: log 1 nM (10 nM))
Kd [17]: 0.626 nM
binding result [18]: no binding (tested: log 1 nM (10 nM))
EC50 [19]: 0.289 nM
B2: Control antibody 2 (antibody 6H3 described in U.S. Pat. No. 9,574,000) (antibody, V domains shown)
VH: EVQLQQSGPVLVKPGTSVKMSCKASGYTFTDYYMNWVKQSHGKSLEWIGVINPYNGDTTYNQKFKGKATLTVDKSSSTAYMEVNSLTFEDSAVYYCARYPESTYWGQGTLVTVSA
VL: DVVMTQTPLSLPVSLGDQASISCRSSQSLVHINGNTYLHWYLQKPGQSPKVLIYKVSNRFSGVPDRFSGSGSGTDFTLKISRVEAEDLGVYFCSQSTHVPLTFGAGTKLELK
notes: also called (+) control Ab2; Ab2

Reference: patent US20230312724A1 (KADMON, published 2023)
